{"source": "paper PMC4141763", "about": "“Reciprocal Activating Crosstalk between c-Met and Caveolin 1 Promotes Invasive Phenotype in Hepatocellular Carcinoma” (PLoS ONE, 2014)", "binders": {"B1": {"name": "Caveolin 1 (CAV1) (natural protein, UniProt Q03135 1-178, looked up)", "chain": "MSGGKYVDSEGHLYTVPIREQGNIYKPNNKAMADELSEKQVYDAHTKEIDLVNRDPKHLNDDVVKIDFEDVIAEPEGTHSFDGIWKASFTTFTVTKYWFYRLLSALFGIPMALIWGIYFAILSFLHIWAVVPCIKSFLIEIQCISRVYSIYVHTVCDPLFEAVGKIFSNVRINLQKEI", "notes": "detected by Western blot with an antibody to CAV1; Endogenous protein; the co-IP blot detects total CAV1; source: endogenous, Mahlavu whole cell lysate"}}, "target": "T1, c-Met, the receptor for Hepatocyte Growth Factor (HGF) (human (endogenous in SNU-449 and …, UniProt P08581 25-1390))", "T1 construct": "precipitated with agarose-conjugated anti-c-Met antibody sc-161 AC; Endogenous receptor in a lysate; the co-IP blot detects total c-Met; also called c-Met Tyrosine Kinase; source: endogenous, Mahlavu whole cell lysate", "T1 sequence (P08581 25-1390)": "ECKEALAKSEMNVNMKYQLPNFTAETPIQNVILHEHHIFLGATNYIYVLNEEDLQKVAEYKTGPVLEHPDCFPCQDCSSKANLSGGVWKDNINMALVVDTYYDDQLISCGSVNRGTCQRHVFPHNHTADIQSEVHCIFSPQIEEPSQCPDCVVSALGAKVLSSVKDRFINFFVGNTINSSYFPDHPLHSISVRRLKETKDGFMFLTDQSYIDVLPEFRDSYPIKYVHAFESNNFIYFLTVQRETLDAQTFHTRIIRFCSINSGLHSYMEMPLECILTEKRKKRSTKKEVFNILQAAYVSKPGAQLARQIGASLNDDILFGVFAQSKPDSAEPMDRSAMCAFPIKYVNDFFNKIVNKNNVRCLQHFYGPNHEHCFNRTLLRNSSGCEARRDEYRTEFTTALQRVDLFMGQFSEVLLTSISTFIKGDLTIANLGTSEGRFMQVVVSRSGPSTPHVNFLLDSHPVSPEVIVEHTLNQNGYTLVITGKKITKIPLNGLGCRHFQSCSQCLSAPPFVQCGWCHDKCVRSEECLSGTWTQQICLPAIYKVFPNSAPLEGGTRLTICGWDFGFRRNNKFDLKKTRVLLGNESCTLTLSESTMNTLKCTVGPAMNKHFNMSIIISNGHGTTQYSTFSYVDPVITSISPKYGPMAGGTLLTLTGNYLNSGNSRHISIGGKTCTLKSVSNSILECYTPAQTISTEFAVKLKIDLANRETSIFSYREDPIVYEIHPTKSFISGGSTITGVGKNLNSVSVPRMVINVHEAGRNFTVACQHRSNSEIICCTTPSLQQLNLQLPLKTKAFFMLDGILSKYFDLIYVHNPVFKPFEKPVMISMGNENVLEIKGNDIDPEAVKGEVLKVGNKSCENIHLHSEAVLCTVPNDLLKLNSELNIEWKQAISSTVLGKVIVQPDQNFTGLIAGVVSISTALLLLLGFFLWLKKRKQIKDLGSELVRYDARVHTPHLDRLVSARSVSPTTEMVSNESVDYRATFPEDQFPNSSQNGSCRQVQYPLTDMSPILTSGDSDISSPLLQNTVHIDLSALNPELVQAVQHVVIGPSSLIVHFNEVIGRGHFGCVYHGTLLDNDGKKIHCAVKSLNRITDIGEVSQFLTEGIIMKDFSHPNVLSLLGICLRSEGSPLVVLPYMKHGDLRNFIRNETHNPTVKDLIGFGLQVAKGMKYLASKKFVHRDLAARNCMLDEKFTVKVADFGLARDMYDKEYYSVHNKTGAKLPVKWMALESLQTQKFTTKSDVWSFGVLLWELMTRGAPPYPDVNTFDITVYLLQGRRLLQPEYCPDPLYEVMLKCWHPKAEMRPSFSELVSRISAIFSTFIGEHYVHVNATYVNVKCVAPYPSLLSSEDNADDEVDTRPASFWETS", "test": "co-IP; SNU-449 whole cell lysates (modified NP-40 buffer) precipitated with agarose-conjugated anti-c-Met antibody (sc-161 AC), blotted for CAV1 and c-Met; serum-starved cells untreated or exposed to HGF (40 ng/mL) for 15, 30 and 60 min; IgG as IP control", "conditions": "partners not purified"}
{"binder": "B1", "values": [{"measurement": "fold increase in the amount co-immunoprecipitated upon HGF stimulation, against no HGF", "result": "≥ 3", "unit": "fold"}]}
